Reference: the Immune Epitope Database (IEDB)

Key:
HLA-A*03:01 [1] = test: IEDB peptide-MHC binding, purified MHC/competitive/fluorescence; ≥ and ≤ were set here for values at or beyond the usual limits of such assays
HLA-A*11:01 [2] = test: as above
HLA-A*24:02 = test: as above; conditions: source organism: Zaire ebolavirus
HLA-A*01:01 = test: IEDB peptide-MHC binding, purified MHC/direct/fluorescence; filed as Kd, often an IC50 or EC50 that approximates it; ≥ and ≤ were set here for values at or beyond the usual limits of such assays
HLA-A*29:02 = test: as above
HLA-A*02:01 [3] = test: IEDB peptide-MHC binding, purified MHC/competitive/fluorescence; ≥ and ≤ were set here for values at or beyond the usual limits of such assays
HLA-A*02:03 [4] = test: IEDB peptide-MHC binding, purified MHC/direct/fluorescence; filed as Kd, often an IC50 or EC50 that approximates it; ≥ and ≤ were set here for values at or beyond the usual limits of such assays
HLA-A*02:11 = test: as above
HLA-A*02:12 = test: as above
HLA-A*02:16 = test: as above
HLA-A*02:19 = test: as above
HLA-A*03:01 [5] = test: as above
HLA-A*24:03 = test: as above
HLA-A*68:02 = test: as above
HLA-B*07:02 = test: as above
HLA-A*02:01 [6] = test: IEDB peptide-MHC binding, purified MHC/competitive/fluorescence; filed as Kd, often an IC50 or EC50 that approximates it; ≥ and ≤ were set here for values at or beyond the usual limits of such assays
HLA-A*26:01 = test: as above
HLA-A*69:01 = test: as above
HLA-B*15:01 [7] = test: as above; conditions: source organism: Orthohantavirus andesense
HLA-B*15:17 [8] = test: as above; conditions: source organism: Orthohantavirus andesense
HLA-B*18:01 [9] = test: as above; conditions: source organism: Orthohantavirus andesense
HLA-B*27:03 = test: as above; conditions: source organism: Orthohantavirus andesense
HLA-B*35:01 = test: as above; conditions: source organism: Orthohantavirus andesense
HLA-B*39:01 = test: as above
HLA-B*46:01 [10] = test: as above; conditions: source organism: Orthohantavirus andesense
HLA-B*51:01 [11] = test: as above; conditions: source organism: Orthohantavirus andesense
HLA-B*57:01 [12] = test: as above; conditions: source organism: Orthohantavirus andesense
HLA-B*40:01 = test: IEDB peptide-MHC binding, purified MHC/direct/fluorescence; filed as Kd, often an IC50 or EC50 that approximates it; ≥ and ≤ were set here for values at or beyond the usual limits of such assays
HLA-B*15:42 = test: IEDB peptide-MHC binding, purified MHC/competitive/fluorescence; filed as Kd, often an IC50 or EC50 that approximates it; ≥ and ≤ were set here for values at or beyond the usual limits of such assays
HLA-B*45:06 = test: as above
HLA-B*83:01 = test: as above
HLA-A*11:01 [13] = test: IEDB peptide-MHC binding, purified MHC/direct/fluorescence; filed as Kd, often an IC50 or EC50 that approximates it; ≥ and ≤ were set here for values at or beyond the usual limits of such assays; conditions: source organism: Cowpox virus
HLA-A*31:01 = test: as above; conditions: source organism: Cowpox virus
HLA-B*15:01 [14] = test: as above; conditions: source organism: Cowpox virus
HLA-B*15:17 [15] = test: as above; conditions: source organism: Cowpox virus
HLA-B*18:01 [16] = test: as above; conditions: source organism: Cowpox virus
HLA-B*27:05 = test: as above; conditions: source organism: Cowpox virus
HLA-B*46:01 [17] = test: as above; conditions: source organism: Cowpox virus
HLA-B*48:01 = test: as above; conditions: source organism: Cowpox virus
HLA-B*51:01 [18] = test: as above; conditions: source organism: Cowpox virus
HLA-B*57:01 [19] = test: as above; conditions: source organism: Cowpox virus
HLA-B*58:01 = test: as above; conditions: source organism: Cowpox virus
HLA-A*02:03 [20] = test: IEDB peptide-MHC binding, purified MHC/competitive/fluorescence; filed as Kd, often an IC50 or EC50 that approximates it; ≥ and ≤ were set here for values at or beyond the usual limits of such assays; conditions: source organism: Vaccinia virus Copenhagen
HLA-A*02:06 = test: as above; conditions: source organism: Vaccinia virus Copenhagen
HLA-B*08:01 = test: as above; conditions: source organism: Vaccinia virus Copenhagen
[21] = source organism: Zaire ebolavirus
[22] = source organism: Mammarenavirus juninense
[23] = source organism: Sudan ebolavirus
[24] = source organism: Orthohantavirus andesense
[25] = source organism: Vaccinia virus
[26] = source organism: Vaccinia virus Copenhagen

AFLILPQAK
IC50 (HLA-A*03:01 [1]; [21]): 20 µM
IC50 (HLA-A*11:01 [2]; [21]): 14100 nM
IC50 (HLA-A*24:02): 26.9 µM

HTEFQTVSF
Kd (HLA-A*01:01; [22]): 2280 nM
Kd (HLA-A*29:02; [22]): ≥ 20 µM

ILGSLGLRK
IC50 (HLA-A*02:01 [3]; [23]): ≥ 141 µM
IC50 (HLA-A*03:01 [1]; [23]): 0.872 µM
IC50 (HLA-A*11:01 [2]; [23]): 219 nM

IQNVPGPHR
IC50 (HLA-A*02:01 [3]; [21]): ≥ 119 µM
IC50 (HLA-A*03:01 [1]; [21]): 8.53 µM
IC50 (HLA-A*11:01 [2]; [21]): 889 nM
IC50 (HLA-A*24:02): 6.86 µM

KPKALSEAF
Kd (HLA-A*02:03 [4]; source organism: Oran virus): ≥ 20 µM
Kd (HLA-A*02:11; source organism: Oran virus): ≥ 20 µM
Kd (HLA-A*02:12; source organism: Oran virus): ≥ 20 µM
Kd (HLA-A*02:16; source organism: Oran virus): ≥ 20 µM
Kd (HLA-A*02:19; source organism: Oran virus): ≥ 20 µM
Kd (HLA-A*03:01 [5]; source organism: Oran virus): ≥ 20 µM
Kd (HLA-A*24:03; source organism: Oran virus): ≥ 20 µM
Kd (HLA-A*29:02; source organism: Oran virus): ≥ 20 µM
Kd (HLA-A*68:02; source organism: Oran virus): ≥ 20 µM
Kd (HLA-B*07:02; source organism: Oran virus): 76.5 nM
Kd (HLA-A*02:01 [6]; [24]): ≥ 20 µM
Kd (HLA-A*26:01; [24]): ≥ 20 µM
Kd (HLA-A*69:01; [24]): ≥ 20 µM
Kd (HLA-B*15:01 [7]): ≥ 20 µM
Kd (HLA-B*15:17 [8]): ≥ 20 µM
Kd (HLA-B*18:01 [9]): ≥ 20 µM
Kd (HLA-B*27:03): ≥ 20 µM
Kd (HLA-B*35:01): 22.3 nM
Kd (HLA-B*39:01; [24]): ≥ 20 µM
Kd (HLA-B*46:01 [10]): ≥ 20 µM
Kd (HLA-B*51:01 [11]): ≥ 20 µM
Kd (HLA-B*57:01 [12]): ≥ 20 µM

LEEDIQHFL
Kd (HLA-A*02:03 [4]; [24]): ≥ 20 µM
Kd (HLA-A*02:11; [24]): ≥ 20 µM
Kd (HLA-A*02:12; [24]): ≥ 20 µM
Kd (HLA-A*02:16; [24]): ≥ 20 µM
Kd (HLA-A*02:19; [24]): ≥ 20 µM
Kd (HLA-A*03:01 [5]; [24]): ≥ 20 µM
Kd (HLA-A*24:03; [24]): ≥ 20 µM
Kd (HLA-A*29:02; [24]): ≥ 20 µM
Kd (HLA-A*68:02; [24]): ≥ 20 µM
Kd (HLA-B*40:01; [24]): 0.2 nM
Kd (HLA-A*02:01 [6]; [24]): ≥ 20 µM
Kd (HLA-A*26:01; [24]): ≥ 20 µM
Kd (HLA-A*69:01; [24]): ≥ 20 µM
Kd (HLA-B*15:01 [7]): ≥ 20 µM
Kd (HLA-B*15:17 [8]): ≥ 20 µM
Kd (HLA-B*15:42; [24]): ≥ 5 µM
Kd (HLA-B*18:01 [9]): ≥ 20 µM
Kd (HLA-B*27:03): ≥ 20 µM
Kd (HLA-B*39:01; [24]): ≥ 20 µM
Kd (HLA-B*45:06; [24]): ≥ 5 µM
Kd (HLA-B*46:01 [10]): ≥ 20 µM
Kd (HLA-B*51:01 [11]): ≥ 20 µM
Kd (HLA-B*57:01 [12]): ≥ 20 µM
Kd (HLA-B*83:01; [24]): ≥ 5 µM

LLQKYPPPR
IC50 (HLA-A*02:01 [3]; [25]): ≥ 101 µM
IC50 (HLA-A*03:01 [1]; [25]): 4.03 µM
IC50 (HLA-A*11:01 [2]; [25]): 7750 nM

RTNGASYAY
Kd (HLA-A*01:01; source organism: Mycobacterium tuberculosis): 199 nM
Kd (HLA-A*29:02; source organism: Mycobacterium tuberculosis str. Haarlem): ≤ 0.001 µM

SIATNLEYK
IC50 (HLA-A*03:01 [1]; [25]): 3.98 µM
IC50 (HLA-A*11:01 [2]; [25]): 427 nM

YPPPRYITV
Kd (HLA-A*01:01; source organism: Cowpox virus): ≥ 20000 nM
Kd (HLA-A*03:01 [5]; source organism: Cowpox virus): ≥ 20 µM
Kd (HLA-A*11:01 [13]): ≥ 20 µM
Kd (HLA-A*31:01): ≥ 20 µM
Kd (HLA-B*07:02; source organism: Cowpox virus): 113 nM
Kd (HLA-B*15:01 [14]): ≥ 20 µM
Kd (HLA-B*15:17 [15]): ≥ 20 µM
Kd (HLA-B*18:01 [16]): ≥ 20 µM
Kd (HLA-B*27:05): ≥ 20 µM
Kd (HLA-B*40:01; source organism: Cowpox virus): ≥ 20000 nM
Kd (HLA-B*46:01 [17]): ≥ 20 µM
Kd (HLA-B*48:01): ≥ 20 µM
Kd (HLA-B*51:01 [18]): 179 nM
Kd (HLA-B*57:01 [19]): ≥ 20 µM
Kd (HLA-B*58:01): ≥ 20 µM
Kd (HLA-A*02:01 [6]; [26]): 0.106 µM
Kd (HLA-A*02:03 [20]): 239 nM
Kd (HLA-A*02:06): 11.4 nM
Kd (HLA-A*26:01; [26]): ≥ 20 µM
Kd (HLA-A*69:01; [26]): 0.0681 µM
Kd (HLA-B*08:01): 543 nM
Kd (HLA-B*15:42; [26]): ≥ 5 µM
Kd (HLA-B*39:01; [26]): 3.58 µM
Kd (HLA-B*45:06; [26]): ≥ 5 µM
Kd (HLA-B*83:01; [26]): ≥ 5 µM
